Laboratory results published in patent US6084068, “Elongin A and C functional domains” (Oklahoma Medical Research Foundation, dated 2000).

T1: Elongin BC complex (wild type rat Elongin B and C) (rat, UniProt P62870)
T1 chain 1: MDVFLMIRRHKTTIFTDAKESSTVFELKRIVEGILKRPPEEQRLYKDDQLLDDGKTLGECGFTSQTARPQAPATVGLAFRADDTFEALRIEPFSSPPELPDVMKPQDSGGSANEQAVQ
T1 chain 2: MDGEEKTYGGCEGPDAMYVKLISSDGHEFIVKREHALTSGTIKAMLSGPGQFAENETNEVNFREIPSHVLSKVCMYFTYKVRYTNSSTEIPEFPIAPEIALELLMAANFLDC

T2: wild type Elongin A (rat)
T2 chain: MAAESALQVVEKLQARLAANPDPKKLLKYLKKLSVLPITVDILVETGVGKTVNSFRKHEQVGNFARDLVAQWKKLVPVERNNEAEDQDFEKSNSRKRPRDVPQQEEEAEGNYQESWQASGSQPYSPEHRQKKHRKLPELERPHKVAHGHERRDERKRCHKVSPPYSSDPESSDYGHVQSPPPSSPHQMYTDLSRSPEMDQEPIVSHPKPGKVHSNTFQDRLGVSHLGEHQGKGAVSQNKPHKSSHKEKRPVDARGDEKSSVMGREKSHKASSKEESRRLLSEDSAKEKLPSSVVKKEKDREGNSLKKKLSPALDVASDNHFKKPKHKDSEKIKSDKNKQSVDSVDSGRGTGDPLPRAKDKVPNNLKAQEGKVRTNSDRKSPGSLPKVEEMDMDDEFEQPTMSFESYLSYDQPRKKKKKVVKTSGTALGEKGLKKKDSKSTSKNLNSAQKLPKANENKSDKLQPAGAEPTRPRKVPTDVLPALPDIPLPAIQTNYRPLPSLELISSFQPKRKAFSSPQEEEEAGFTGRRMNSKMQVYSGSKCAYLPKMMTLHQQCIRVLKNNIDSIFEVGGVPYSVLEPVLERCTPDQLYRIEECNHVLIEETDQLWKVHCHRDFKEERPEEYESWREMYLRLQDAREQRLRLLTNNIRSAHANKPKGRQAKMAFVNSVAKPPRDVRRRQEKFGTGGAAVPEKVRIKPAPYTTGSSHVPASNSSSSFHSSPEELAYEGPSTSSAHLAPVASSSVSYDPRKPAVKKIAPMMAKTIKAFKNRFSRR

B1: wild type C. elegans Elongin A (other)
chain: MPETDEEKVRRYTECLMNGIDPKRALKRLYDLNVSPEVFKSADTVQCVKRYESSPELAKYAKRVRDKLLGGRKREKGGGEDDADIEHTALKKAKKEEVNLDEEFAEAMKSGVSAQASSAPRATVDYSKYKVVKRVEVKVEPKPEPVDVHEQQASSSSMSYQREHQKDYAPVVPTCKPSGQPKKAIPQSKSLHADENMFKPRKERQKVFAGRRKRVGEGVSTLVSLCQTVLMSHIDMIDHVGIVPFDLLKPVLDHASTDQLRHILDVNPMLVEDADEMFHEMVSREFPKYANREKSGWTWREMYDRLVEKKQKKENDKLEMLTSRIGKSNSAQSQGRQTMVIDMAHTRVRSKSFFNTVKDSQVKMSATPSALQLSQARKNVKIEGKAQLRTITPRGGGVPSTSRSRSNNNNNMNNGLVVKKTAPLMAKCKKMLKR
B2: C. elegans Elongin A mutant C.e.EloA(202-434) (other)
chain: KERQKVFAGRRKRVGEGVSTLVSLCQTVLMSHIDMIDHVGIVPFDLLKPVLDHASTDQLRHILDVNPMLVEDADEMFHEMVSREFPKYANREKSGWTWREMYDRLVEKKQKKENDKLEMLTSRIGKSNSAQSQGRQTMVIDMAHTRVRSKSFFNTVKDSQVKMSATPSALQLSQARKNVKIEGKAQLRTITPRGGGVPSTSRSRSNNNNNMNNGLVVKKTAPLMAKCKKMLKR
B3: Elongin C internal deletion mutant C(Δ71-80) (other)
chain: MDGEEKTYGGCEGPDAMYVKLISSDGHEFIVKREHALTSGTIKAMLSGPGQFAENETNEVNFREIPSHVLVRYTNSSTEIPEFPIAPEIALELLMAANFLDC
B4: Elongin C internal deletion mutant C(Δ81-90) (other)
chain: MDGEEKTYGGCEGPDAMYVKLISSDGHEFIVKREHALTSGTIKAMLSGPGQFAENETNEVNFREIPSHVLSKVCMYFTYKPEFPIAPEIALELLMAANFLDC
B5: Elongin C internal deletion mutant C(Δ51-60) (other)
chain: MDGEEKTYGGCEGPDAMYVKLISSDGHEFIVKREHALTSGTIKAMLSGPGNFREIPSHVLSKVCMYFTYKVRYTNSSTEIPEFPIAPEIALELLMAANFLDC
B6: Elongin C internal deletion mutant C(Δ61-70) (other)
chain: MDGEEKTYGGCEGPDAMYVKLISSDGHEFIVKREHALTSGTIKAMLSGPGQFAENETNEVSKVCMYFTYKVRYTNSSTEIPEFPIAPEIALELLMAANFLDC
B7: Elongin C internal deletion mutant C(Δ21-30) (other)
chain: MDGEEKTYGGCEGPDAMYVKVKREHALTSGTIKAMLSGPGQFAENETNEVNFREIPSHVLSKVCMYFTYKVRYTNSSTEIPEFPIAPEIALELLMAANFLDC
B8: Elongin C alanine scanning mutant C(Ala19-21) (other)
chain: MDGEEKTYGGCEGPDAMYAAAISSDGHEFIVKREHALTSGTIKAMLSGPGQFAENETNEVNFREIPSHVLSKVCMYFTYKVRYTNSSTEIPEFPIAPEIALELLMAANFLDC
B9: Elongin C alanine scanning mutant C(Ala25-27) (other)
chain: MDGEEKTYGGCEGPDAMYVKLISSAAAEFIVKREHALTSGTIKAMLSGPGQFAENETNEVNFREIPSHVLSKVCMYFTYKVRYTNSSTEIPEFPIAPEIALELLMAANFLDC
B10: Elongin C alanine scanning mutant C(Ala22-24) (other)
chain: MDGEEKTYGGCEGPDAMYVKLAAADGHEFIVKREHALTSGTIKAMLSGPGQFAENETNEVNFREIPSHVLSKVCMYFTYKVRYTNSSTEIPEFPIAPEIALELLMAANFLDC
B11: Elongin C alanine scanning mutant C(Ala28-30) (other)
chain: MDGEEKTYGGCEGPDAMYVKLISSDGHAAAVKREHALTSGTIKAMLSGPGQFAENETNEVNFREIPSHVLSKVCMYFTYKVRYTNSSTEIPEFPIAPEIALELLMAANFLDC
B12: Elongin C internal deletion mutant C(Δ91-100) (other)
chain: MDGEEKTYGGCEGPDAMYVKLISSDGHEFIVKREHALTSGTIKAMLSGPGQFAENETNEVNFREIPSHVLSKVCMYFTYKVRYTNSSTEILELLMAANFLDC
B13: Elongin C deletion mutant C(23-112) (other)
chain: SSDGHEFIVKREHALTSGTIKAMLSGPGQFAENETNEVNFREIPSHVLSKVCMYFTYKVRYTNSSTEIPEFPIAPEIALELLMAANFLDC

Molecular target: T1, Elongin BC complex (wild type rat …)
Test: refolded with rat Elongin B and C; TSK SP-NPR HPLC, SDS-PAGE, silver staining
Experimental: Figure 8A: FIG. 8A. Analysis of wild type and mutant C. elegans Elongin A wherein wild type or mutant C. elegans Elongin A was refolded with rat Elongin B and C and subjected to TSK SP-NPR HPLC as described. Aliquots of the peak column fractions were analyzed by SDS-PAGE, and proteins were visualized by silver staining. WT C.e. […] Figure 8B: FIG. 8B. ~2 pmol of human or C. elegans Elongin A proteins were refolded as described (Bradsher, et al., *J Biol Chem* 268: 25587–25593 (1993)) in the presence or absence of ~2 pmol of rat Elongin B and C. Aliquots of refolded protein were assayed for transcriptional activity in oligo dc-tailed template assays performed as described. Reaction mixtures contained no Elongin (lane 1); 3 and 9 μl of renatured human Elongin A without (lanes 2 and 3) or with (lanes 4 and 5) Elongin B and C; 3 and 9 μl of renatured wild type C. elegans Elongin A without (lanes 6 and 7) or with (lanes 8 and 9) Elongin B and C; 3 and 9 μl of renatured C.e. EloA(94–434) (SEQ ID NO:44) without (lanes 10 and 11) or with (lanes 12 and 13) Elongin B and C; 3 and 9 μl of renatured C.e. EloA (202–434) (SEQ ID NO:45) with (lanes 14 and 15) or without (lanes 16, and 17) Elongin B and C.
B1: binds. B2: binds.

Each binder was assayed against wild type Elongin B (rat, UniProt P62870) (assay: refolded with wild type Elongin B; TSK DEAE-NPR HPLC, SDS-PAGE, silver staining).
Experimental: Figure 10A: FIG. 10A. […] Aliquots of the indicated column fractions were analyzed by SDS-PAGE, and proteins were visualized by silver staining. Figure 10B: FIG. 10B. N-terminal, C-terminal, and internal Elongin C deletion mutants were assayed for their abilities to form Elongin BC complexes as described.
~6 µg of Elongin B was mixed with ~6 µg of either wild type or mutant Elongin C and diluted 5-fold with 40 mM Hepes-NaOH (pH 7.9), 100 mM KCl, 2 mM DTT, 50 µM ZnSO_4, 0.1 mM EDTA, and 10% (v/v) glycerol. After incubation for 90 min on ice, the mixtures were dialyzed at 4° C. overnight against 40 mM Tris-HCl (pH 7.9), 0.1 mM EDTA, 10% (v/v) glycerol, and 40 mM KCl. Following dialysis, the mixtures were centrifuged at 60,000×g for 15 min at 4° C. The resulting supernatants were applied to TSK DEAE-NPR columns (35 mm×4.6 mm, Toso-Haas) pre-equilibrated in 40 mM Tris-HCl (pH 7.9), 0.1 mM EDTA, 1 mM DTT, 10% (v/v) glycerol, and 40 mM KCl and fractionated using a SMART microchromatography system (Pharmacia) at 8° C. The columns were eluted at 0.3 ml/min with a 3 ml linear gradient from 0.04 to 0.5M KCl in 40 mM Tris-HCl (pH 7.9), 0.1 mM EDTA, 1 mM DTT, and 10% (v/v) glycerol. Aliquots of each column fraction were analyzed by 10% Tris-Tricine SDS-polyacrylamide gel electrophoresis, and the proteins were visualized by silver staining.
B3: binds. B4: binds. B5: binds. B6: binds. B7: no binding. B8: binds. B9: no binding. B10: binds. B11: no binding. B12: binds. B13: no binding.

Molecular target: T2, wild type Elongin A
Test: refolded with wild type Elongin A and B; TSK SP-NPR HPLC, SDS-PAGE, silver staining
B7: no binding.
